Experimental data: patent US20180037632A1 (BIONTECH, published 2018)
Changes are numbered by the printed parent chain. In names and notes the source's numbering stands. Positions of bridges follow the written chain, without caps; N, C: chain ends. No end group written: not given here.

Key:
[1] = molecular target: T1, recombinant soluble human Seprase (rhuSeprase) (human, UniProt Q12884 29-760); assay: SPR (Biacore T100), rhuSeprase immobilised, MC-FA-010 at 37, 111,11, 333,33, 1000 and 3000 nM, global fit; Rmax 316,6 RU; Chi² 9,42 RU²; U-value 1
T1 construct: range 29-760; Secreted from CHO-S cells with a mouse Ig kappa secretion signal (not part of the protein in the assay); also called recombinant human Seprase; soluble fraction of human Seprase
T1 sequence: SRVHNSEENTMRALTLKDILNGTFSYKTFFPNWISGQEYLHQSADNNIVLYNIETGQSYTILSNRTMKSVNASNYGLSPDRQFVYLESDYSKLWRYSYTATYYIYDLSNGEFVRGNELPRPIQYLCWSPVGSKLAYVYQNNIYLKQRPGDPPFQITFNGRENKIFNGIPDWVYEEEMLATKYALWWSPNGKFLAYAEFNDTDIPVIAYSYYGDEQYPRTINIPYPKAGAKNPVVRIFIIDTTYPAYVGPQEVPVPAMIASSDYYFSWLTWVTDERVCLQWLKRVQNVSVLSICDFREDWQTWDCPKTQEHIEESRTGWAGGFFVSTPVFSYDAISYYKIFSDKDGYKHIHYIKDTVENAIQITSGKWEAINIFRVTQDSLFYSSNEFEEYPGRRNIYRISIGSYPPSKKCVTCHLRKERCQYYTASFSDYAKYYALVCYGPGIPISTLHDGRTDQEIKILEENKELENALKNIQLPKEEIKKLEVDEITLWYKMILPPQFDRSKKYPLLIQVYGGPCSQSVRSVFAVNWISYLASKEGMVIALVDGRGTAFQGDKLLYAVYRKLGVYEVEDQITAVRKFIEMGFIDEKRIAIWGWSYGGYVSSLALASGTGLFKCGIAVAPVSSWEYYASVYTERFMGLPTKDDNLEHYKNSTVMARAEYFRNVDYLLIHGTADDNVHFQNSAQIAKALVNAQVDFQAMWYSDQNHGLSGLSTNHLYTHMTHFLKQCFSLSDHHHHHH
Description: (§1) To obtain insights of the kinetic binding properties surface plasmon resonance (SPR) analysis was performed on a Biacore T100 device (GE Healthcare). Therefore, rhuSeprase was immobilized onto a CM5 chip via NHS/EDC mediated coupling as described by manufacturer at 10 μl/min for 420 sec. […] Kd values were calculated using the provided software.
(§2) As a next step a more detailed analysis of binding kinetic was performed using surface plasmon resonance technology (SPR). Therefore, recombinant human Seprase was immobilized on a CMS chip (GE Healthcare) with an amino reactive surface. […] Association and dissociation data was fitted and corresponding dissociation constant and kinetic values (Kon, Koff and Kd) was calculated using the provided software of the system (FIGS. 4A and B).

[2] = molecular target: T1, recombinant soluble human Seprase …; assay: SPR (Biacore T-100), rhuSeprase immobilized on CM5, multi cycle kinetics, 1:1 fit
Description: (§3) RhuSeprase (20 μg/ml in PBS, 5% mannitol, 5% trehalose) was immobilized on an amino reactive Series S Sensor Chip CM5 (GE Healthcare). For binding analysis of monomeric Microbodies rhuSeprase was loaded to a maximum of 7500 RU, for oligomeric Microbodies to a maximum of 700 RU. Monomeric Microbodies were measured using a multi cycle kinetic method in a concentration range of 3.125 to 1000 nM based on expected dissociation constant. Association step was measured over a time period of 60-90 seconds, dissociation over 420 seconds. Trimeric Mircobodies were measured using a single cycle kinetics method in a concentration range of 0.3125 to 5 nM (association for 90 seconds, dissociation 420 seconds). Binding kinetics and steady state analysis were calculated using a 1:1 binding model (Biacore T-100 Evaluation Software, GE Healthcare).
(§4) The binding kinetics of monomeric and trimeric Seprase-binding Microbodies was determined using surface plasmon resonance spectroscopy on a Biacore T-100 system.

[3] = molecular target: T1, recombinant soluble human Seprase …; assay: competition ELISA on coated rhuSeprase: free MC-FA-010 (0.64 to 3167 nM) against 3 nM Trx-MC-FA-010, detected with anti-S-Tag-HRP, OD 450 nm
Description: (§5) For protein based ELISA analysis 5 μg of the respective recombinant protein (rhuSeprase; streptavidin: Sigma; DPP-IV: R&D Systems, BSA: Eurobio) were immobilized per well of a MaxiSorp™ plate (Nunc) by overnight incubation in coating buffer at 4° C. After washing thrice with 300 μl PBS-T/well on a Hydrospeed plate washer (Tecan) the wells were blocked with 1×Casein solution (Sigma, diluted in PBS) for 2 h at RT. Subsequently, the wells were washed as indicated above. 100 μl of the respective Trx-miniprotein fusion diluted in PBS-T was then added and incubated for 1 h at 4° C. […] For competition ELISAs a fixed concentration of 3 nM Trx-miniprotein fusion was mixed with varying concentration (0.64-3167 nM) of solitary miniprotein before incubation. Binding of the Trx-fusion was detected after a PBS-T washing procedure using HRP coupled anti S-tag antibody as described above. Apparent Kd was calculated using Sigmaplot 10 and an one site saturation binding model for fitting of the data.
Detection of bound miniprotein was achieved via anti S-Tag-HRP conjugated antibody (S-tag is provided by thioredoxin fusion expression system, FIG. 3A). EC₅₀ values were calculated using the one-site-saturation binding model in Sigma plot 10.

[4] = molecular target: T1, recombinant soluble human Seprase …; assay: SPR (Biacore T100), recombinant human Seprase immobilized, 37-3000 nM MC-FA-010; Seprase on the chip; monovalent MC-FA-010, 37-3000 nM, Biacore T100
Description: as §1, §2

[5] = molecular target: T1, recombinant soluble human Seprase …; assay: SPR (Biacore T-100), rhuSeprase immobilized on CM5, steady state analysis, 1:1 fit
Description: as §3, §4

[6] = molecular target: T2, human Seprase, full length, on cells (human, UniProt Q12884 1-760); assay: FACS-based competition on CHO-K1-huSeprase cells, competitor Trx-MC-FA-012 detected with anti-H6-PE
T2 construct: whole, on cells; also called CHO-K1-Seprase; CHO-K1-huSeprase
T2 sequence (looked up): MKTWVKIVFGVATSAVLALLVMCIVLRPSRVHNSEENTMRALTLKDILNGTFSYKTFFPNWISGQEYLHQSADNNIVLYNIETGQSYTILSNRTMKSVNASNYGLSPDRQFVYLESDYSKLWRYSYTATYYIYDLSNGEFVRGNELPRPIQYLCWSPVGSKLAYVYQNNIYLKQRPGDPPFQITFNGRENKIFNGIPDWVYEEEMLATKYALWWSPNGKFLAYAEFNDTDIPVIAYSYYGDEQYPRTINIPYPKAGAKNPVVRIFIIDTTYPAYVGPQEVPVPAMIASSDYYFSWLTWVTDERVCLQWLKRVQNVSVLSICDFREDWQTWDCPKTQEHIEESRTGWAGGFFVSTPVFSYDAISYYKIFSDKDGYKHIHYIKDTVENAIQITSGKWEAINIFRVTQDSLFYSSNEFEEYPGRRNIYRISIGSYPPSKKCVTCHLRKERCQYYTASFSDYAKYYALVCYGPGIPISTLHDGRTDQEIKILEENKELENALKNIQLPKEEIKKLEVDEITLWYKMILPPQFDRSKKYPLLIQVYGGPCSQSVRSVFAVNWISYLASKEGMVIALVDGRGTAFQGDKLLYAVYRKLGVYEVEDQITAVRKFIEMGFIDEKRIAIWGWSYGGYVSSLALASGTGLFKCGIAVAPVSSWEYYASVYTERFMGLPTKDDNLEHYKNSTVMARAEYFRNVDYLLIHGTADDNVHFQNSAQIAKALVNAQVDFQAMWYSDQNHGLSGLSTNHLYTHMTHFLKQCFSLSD

[7] = molecular target: T1, recombinant soluble human Seprase …; assay: SPR (Biacore T-100), rhuSeprase immobilized on CM5, single cycle kinetics, 1:1 fit
Description: as §3, §4

[8] = molecular target: T1, recombinant soluble human Seprase …; assay: SPR (Biacore T-100)
Description: as §3, §4

[9] = molecular target: T1, recombinant soluble human Seprase …; assay: direct ELISA on coated rhuSeprase, Trx fusion detected with anti-S-tag-HRP; apparent KD from one site saturation fit; Error 64,43; R2 0,9863
Description: as §5

[10] = molecular target: T1, recombinant soluble human Seprase …; assay: direct ELISA on coated rhuSeprase; binding relative to the parental Trx-MC-FA-010
Description: as §5

[11] = molecular target: T1, recombinant soluble human Seprase …; assay: direct ELISA on coated rhuSeprase, Trx fusion detected with anti-S-tag-HRP; apparent KD from one site saturation fit; Error 7,6; R2 0,9962
Description: as §5

B1: MC-FA-010 (designed binder)
chain: GKCPYSNWTPGRGPDCRRDSDCPGRCICRGNGYCG
modifications: disulfide (positions not given here)
notes: also called soluble monovalent MC-FA-010; solitary MC-FA-010 miniprotein
Kd [1]: 562 nM
koff [1]: 0.151 s⁻¹
kon [1]: 268000 M⁻¹ s⁻¹
Kd [2]: 149 nM
koff [2]: 0.201 s⁻¹
kon [2]: 1.53e+06 M⁻¹ s⁻¹
IC50 [3]: ~20 nM
Kd [4]: ~560 nM
Kd [5]: 106 nM

B2: DOTA-(MC-FA-012)3 (designed binder)
chain 1: B1 chain with K2A
chain 2: B1 chain with K2A
chain 3: B1 chain with K2A
modifications: each of chains 1-3: N-terminal aminooxy group oxime-ligated to an oxidised serine of the anchor; three disulfides (cystine knot) per chain; anchor carries an N-terminal DOTA chelator
notes: Purchased from Pepscan; about 13000 Da; also called DOTA conjugated trimerized MC-FA-012; MC-FA-012 trimer; not shown: the anchor scaffold (N-terminal DOTA, three Lys-Ser units separated by GSGS linkers)
IC50 [6]: 43.3 nM
Kd [7]: 0.0124 nM
kon [7]: 2.11e+07 M⁻¹ s⁻¹
times slower offrate compared to MC-FA-012 [8]: ~530 fold
Kd [5]: 0.249 nM

B3: Trx-MC-FA-0112 (designed binder)
chain: B1 chain with G13A
modifications: disulfide 16-28, 22-34, 3-26; also: N-terminal Trx-His6-S-tag fusion carrier, not in chain
notes: the position follows from the order of the rows; also called alanine scan variant G13A of MC-FA-010, Trx fusion; not shown: Thioredoxin-A, His-tag (H6), S-tag and linker of the pET-32-LibEx fusion, N-terminal of the miniprotein
Kd [9]: 217 nM
Relative Bindung im Vergleich zu Trx-MC-FA-010 [%] [10]: 6.98%

B4: Trx-MC-FA-019 (designed binder)
chain: B1 chain with P10A
modifications: disulfide 16-28, 22-34, 3-26; also: N-terminal Trx-His6-S-tag fusion carrier, not in chain
notes: the position follows from the order of the rows; also called alanine scan variant P10A of MC-FA-010, Trx fusion; not shown: thioredoxin-A, His6 tag, S-tag and linkers of the pET-32-LibEx fusion (N-terminal carrier)
Kd [11]: 78.7 nM
Relative Bindung im Vergleich zu Trx-MC-FA-010 [%] [10]: 19.3%
